Measurements published in patent US20240197828A1, “Chimeric molecule to treat sepsis and other inflammatory conditions” (THE FEINSTEIN INSTITUTES FOR MEDICAL RESEARCH, priority 2022, published 2024).

Test system: RAW264.7 cells
Experiment: eCIRP-induced cytokine release in RAW264.7 cells (ELISA of supernatants)
Type: cell-based, mouse
Settings: RAW264.7, rmCIRP 1 μg/mL, 4 hours
Method: FIG. 2. Effects of MOP peptides on TNFα levels. RAW264.7 macrophages were cultured and treated with either volume-equivalent PBS, recombinant murine (rm) CIRP (eCIRP; 1 μg/mL), or rmCIRP with each respective peptide (10 μg/mL). After 4 hours, cell supernatants were assessed for TNFα levels by ELISA. Experiments were performed 3 times, and all data were used for analysis. Data are expressed as mean±SEM and compared by one-way ANOVA and SNK test. *p<0.05 vs. PBS, #p<0.05 vs. eCIRP.
FIG. 4. eCIRP-induced inflammation is attenuated by MOP3. RAW264.7 cells were treated according to respective groups: PBS (volume equivalent), rmCIRP (1 μg/mL), or rmCIRP with MOP3 at increasing doses. After 4 hours, cell supernatants were analyzed for TNFα levels by ELISA. […] Data are expressed as mean #SEM and compared by one-way ANOVA and SNK test. *p<0.05 vs. PBS, #p<0.05 vs. eCIRP.
Computational modeling was used to determine the likely domain of MFG-E8's binding to eCIRP. […] Binding of MOP3 to CIRP was quantified using Surface Plasmon Resonance (SPR) analysis. […] After 1 h, cells were fixed and analyzed for intracellular FITC-rmCIRP by flow cytometry. […] After 4 h, cell culture supernatants were analyzed for inflammatory cytokine, TNFα. […]
The mouse macrophage cell culture supernatants were analyzed for cytokine levels using ELISA kits (BD Biosciences, CA). […]

B1: milk fat globule-epidermal growth factor—factor VIII (protein, listed as Mus musculus)
chain: MQVSRVLAALCGMLLCASGLFAASGDFCDSSLCLNGGTCLTGQDNDIYCLCPEGFTGLVCNETERGPCSPNPCYNDAKCLVTLDTQRGDIFTEYICQCPVGYSGIHCETETNYYNLDGEYMFTTAVPNTAVPTPAPTPDLSNNLASRCSTQLGMEGGAIADSQISASSVYMGFMGLQRWGPELARLYRTGIVNAWTASNYDSKPWIQVNLLRKMRVSGVMTQGASRAGRAEYLKTFKVAYSLDGRKFEFIQDESGGDKEFLGNLDNNSLKVNMFNPTLEAQYIKLYPVSCHRGCTLRFELLGCELHGCSEPLGLKNNTIPDSQMSASSSYKTWNLRAFGWYPHLGRLDNQGKINAWTAQSNSAKEWLQVDLGTQRQVTGIITQGARDFGHIQYVASYKVAHSDDGVQWTVYEEQGSSKVFQGNLDNNSHKKNIFEKPFMARYVRVLPVSWHNRITLRLELLGC
IL-6 levels in cell supernatants (vs eCIRP alone): attenuated these levels in a dose-dependent manner
TNFα levels in cell supernatants (vs rmCIRP alone): attenuated these levels in a dose-dependent manner
